These results are taken from US20070066802A1.

Bounds are passed on as bounds.

Common to all, as to test: cell-based or functional assay
For test [1], the target named is K^b-CD28[L→G]-ζ receptor (mouse) (UniProt P31041).
The target in test [2] is K^b-CD28-ζ receptor pulsed with ovalbumin 257-264 peptide (SIINFEKL) (mouse) (UniProt P31041).
For test [3], the target named is K^b-CD28[L→G]-ζ receptor pulsed with ovalbumin 257-264 peptide (SIINFEKL) (mouse) (UniProt P31041).

Regarding “clone AF6-88.5 anti-mouse H-2K^b (antibody)”, the IFN-γ release by RMTC in test [1] was more than 3.5 fold.
For the substance “OT-1 TCR (rearranged ovalbumin 257-264/H-2K^b restricted TCR)”, in test [2], the in vivo depletion of Vα2+ OT-1 cells from the LN, peptide-pulsed against unpulsed RMTC turned out to be 93% and the in vivo depletion of Vα2+ OT-1 cells from the spleen, peptide-pulsed against unpulsed RMTC was 96%. Besides, in test [3], the in vivo depletion of Vα2+ OT-1 cells from the LN, peptide-pulsed against unpulsed RMTC turned out to be 98%; the in vivo depletion of Vα2+ OT-1 cells from the spleen, peptide-pulsed against unpulsed RMTC came out at 99%; the lysis of OT-1 target cells, peptide concentration for equivalent lysis against K^b-CD28-ζ RMTC (fold lower peptide concentration) is 5 to 20; the specific lysis of OT-1 T cells, RMTC dose for equivalent lysis against K^b-CD28-ζ RMTC (fold fewer RMTC) fell in the range of 3 to 9.
